Laboratory results from US5403737A, “Serine protease variants having peptide ligase activity” (priority 1993, dated 1995).

Assay: Esterase activity: hydrolysis of an activated ester substrate (Table III)
Format: biochemical
Conditions: ratio of the apparent second order rate constants (kcat/KM), Sbz versus pNA substrate
Method: Table III: Kinetic constants for the hydrolysis of an amide substrate (s-Ala-Ala-Pro-Phe-pNA) and for an activated ester substrate (s-Ala-Ala-Pro-Phe-Sbz). The ratio of esterase to amidase activities is the ratio of the apparent second order rate constants (kcat/KM). The aminolysis to hydrolysis ratio was investigated using the thiobenzyl ester substrate with 3.6 mM of the dipeptide Ala-Phe-amide as the nucleophile.
Kinetic Assays. The esterase and amidase activities were obtained from initial rate measurements using a Kontron Uvikon 860 spectrophotometer. The assay for esterase activity utilized the substrate s-Ala-Ala-Pro-Phe-Sbz at (25°±0.2° C.) in 100 mM Tris-HCl (pH 8.60), 4% (v/v) dimethylsulfoxide, 0.005% (v/v) Tween 80. With the non-cysteine containing proteases, DTNB (Ellman (1959), Arch. Biochem. Biophys., 82, 70-77) was added to a concentration of 37.5 μM to visualize the release of thiolbenzoate upon hydrolysis of the substrate. […] The amidase activities were measured under identical conditions by following the increase in absorbance at 412 nm upon hydrolysis of p-nitroanilide from s-Ala-Ala-Pro-Phe-pNA.

esterase/amidase: 4.8
B1: wild type: wild type subtilisin (BPN') from Bacillus amyloliquefaciens (protein, UniProt P00782 108-382, looked up)
Subtilisin BPN': AQSVPYGVSQIKAPALHSQGYTGSNVKVAVIDSGIDSSHPDLKVAGGASMVPSETNPFQDNNSHGTHVAGTVAALNNSIGVLGVAPSASLYAVKVLGADGSGQYSWIINGIEWAIANNMDVINMSLGGPSGSAALKAAVDKAVASGVVVVAAAGNEGTSGSSSTVGYPGKYPSVIAVGAVDSSNQRASFSSVGPELDVMAPGVSIQSTLPGNKYGAYNGTSMASPHVAGAAALILSKHPNWTNTQVRSSLENTTTKLGDSFYYGKGLINVQAAAQ
